Data taken from the supplement of paper PMC9112550, “Optimization of the antimicrobial peptide Bac7 by deep mutational scanning” (BMC Biology, 2022).

Tested on: Escherichia coli TOP10
Test: shrunken log2 fold change of peptide-encoding DNA abundance (4.5 h post-induction vs induction); higher = less antimicrobial activity (less host growth inhibition)
Conditions: time post-induction: 4.5 h; library: site-saturation at positions 5, 18, 19, 20
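Note: peptides expressed intracellularly from a pBAD plasmid library in pooled LB shake-flask culture, induced with 0.3% L-arabinose, DNA abundance read by NGS, three biological replicates, DESeq2 with apeglm shrinkage.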

RRIRKRPPRLPRPRPRPKWVPRP
shrunken log2 fold change: 0.339

RRIRPRPPRLPRPRPRPISLPRP
shrunken log2 fold change: -0.427

RRIRERPPRLPRPRPRPEMQPRP
shrunken log2 fold change: -0.0367

RRIRLRPPRLPRPRPRPCCDPRP
shrunken log2 fold change: -0.139

RRIRHRPPRLPRPRPRPYMKPRP
shrunken log2 fold change: -0.541

RRIRIRPPRLPRPRPRPTLSPRP
shrunken log2 fold change: -0.0751

RRIRGRPPRLPRPRPRPQTMPRP
shrunken log2 fold change: 0.672

RRIRRRPPRLPRPRPRPRGCPRP
shrunken log2 fold change: 0.984

RRIRIRPPRLPRPRPRPKHTPRP
shrunken log2 fold change: -0.329

RRIRNRPPRLPRPRPRPIPQPRP
shrunken log2 fold change: -0.35

RRIRFRPPRLPRPRPRPKGNPRP
shrunken log2 fold change: -0.047

RRIRTRPPRLPRPRPRPCGHPRP
shrunken log2 fold change: -0.14

RRIRYRPPRLPRPRPRPNNVPRP
shrunken log2 fold change: -0.323

RRIRQRPPRLPRPRPRPLKWPRP
shrunken log2 fold change: 0.0646

RRIRTRPPRLPRPRPRPVSLPRP
shrunken log2 fold change: -0.298

RRIRIRPPRLPRPRPRPTEIPRP
shrunken log2 fold change: -0.305

RRIRWRPPRLPRPRPRPMHFPRP
shrunken log2 fold change: -0.00884

RRIRRRPPRLPRPRPRPWSNPRP
shrunken log2 fold change: -0.226

RRIRDRPPRLPRPRPRPIRGPRP
shrunken log2 fold change: -0.0417

RRIRGRPPRLPRPRPRPWPAPRP
shrunken log2 fold change: 0.763

RRIRFRPPRLPRPRPRPFWGPRP
shrunken log2 fold change: 0.0215

RRIRIRPPRLPRPRPRPRDAPRP
shrunken log2 fold change: 0.215

RRIRHRPPRLPRPRPRPLYWPRP
shrunken log2 fold change: -0.276

RRIRNRPPRLPRPRPRPCTFPRP
shrunken log2 fold change: -0.0494

RRIRVRPPRLPRPRPRPHIMPRP
shrunken log2 fold change: -0.339

RRIRTRPPRLPRPRPRPYFTPRP
shrunken log2 fold change: -1.11

RRIRGRPPRLPRPRPRPPCEPRP
shrunken log2 fold change: 0.433

RRIRMRPPRLPRPRPRPTHRPRP
shrunken log2 fold change: 0.929

RRIRSRPPRLPRPRPRPPDCPRP
shrunken log2 fold change: -0.046

RRIRYRPPRLPRPRPRPDEYPRP
shrunken log2 fold change: -0.0128

RRIRRRPPRLPRPRPRPPTTPRP
shrunken log2 fold change: 0.445

RRIRGRPPRLPRPRPRPHEGPRP
shrunken log2 fold change: 0.403

RRIRNRPPRLPRPRPRPPFCPRP
shrunken log2 fold change: 0.19

RRIRKRPPRLPRPRPRPFFHPRP
shrunken log2 fold change: 0.203

RRIRPRPPRLPRPRPRPRIRPRP
shrunken log2 fold change: 0.0752

RRIRERPPRLPRPRPRPSFEPRP
shrunken log2 fold change: -0.132

RRIRQRPPRLPRPRPRPIFNPRP
shrunken log2 fold change: -0.365

RRIRIRPPRLPRPRPRPCCPPRP
shrunken log2 fold change: -0.168

RRIRHRPPRLPRPRPRPEDCPRP
shrunken log2 fold change: -0.0178

RRIRSRPPRLPRPRPRPTFIPRP
shrunken log2 fold change: -0.173

RRIRYRPPRLPRPRPRPNWAPRP
shrunken log2 fold change: -0.267

RRIRMRPPRLPRPRPRPTKYPRP
shrunken log2 fold change: -0.152

RRIRYRPPRLPRPRPRPIIVPRP
shrunken log2 fold change: -0.249

RRIRTRPPRLPRPRPRPVAPPRP
shrunken log2 fold change: 0.389

RRIRARPPRLPRPRPRPYYMPRP
shrunken log2 fold change: -0.687

RRIRDRPPRLPRPRPRPACIPRP
shrunken log2 fold change: 0.194

RRIRLRPPRLPRPRPRPGVIPRP
shrunken log2 fold change: -0.298

RRIRERPPRLPRPRPRPCRCPRP
shrunken log2 fold change: 0.00968

RRIRPRPPRLPRPRPRPTCNPRP
shrunken log2 fold change: -0.142

RRIRKRPPRLPRPRPRPHCKPRP
shrunken log2 fold change: -0.397
